According to US20050037969A1 (ARBOR VITA, published 2005):
Ends that are not written are not given here. * marks the point of attachment. Biotin = O=C1N[C@H]2[C@H](CS[C@H]2CCCCC(=O)*)N1

T1: GST-cytohesin binding protein PDZ domain fusion protein (Homo sapiens (Human), UniProt O60759 74-165)
T1 construct: also called CBP; not shown: glutathione S-transferase encoded by vector pGEX-3X (Pharmacia)
T1 sequence: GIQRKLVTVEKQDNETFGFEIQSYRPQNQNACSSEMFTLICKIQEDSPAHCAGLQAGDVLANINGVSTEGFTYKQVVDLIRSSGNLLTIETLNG

T2: GST-TAX-IP2 PDZ domain fusion protein (human, UniProt O14908 129-216)
T2 construct: also called TAX-1P2; TAX2; not shown: glutathione S-transferase encoded by vector pGEX-3X (Pharmacia)
T2 chain: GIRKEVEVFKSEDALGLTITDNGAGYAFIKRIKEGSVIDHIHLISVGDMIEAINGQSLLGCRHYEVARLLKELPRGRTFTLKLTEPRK

T3: GST-PTN-4 PDZ domain fusion protein (Homo sapiens (Human), UniProt P29074 517-605)
T3 construct: also called protein-tyrosine phosphatase meg1; not shown: glutathione S-transferase encoded by vector pGEX-3X (Pharmacia)
T3 sequence: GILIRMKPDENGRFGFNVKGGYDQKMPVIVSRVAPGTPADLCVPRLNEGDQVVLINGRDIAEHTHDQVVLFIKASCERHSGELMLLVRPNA

T4: SP short PDZ-GST fusion protein (Homo sapiens (Human), UniProt O43464 350-435)
T4 construct: The label SP short is not explained in the excerpts
T4 sequence: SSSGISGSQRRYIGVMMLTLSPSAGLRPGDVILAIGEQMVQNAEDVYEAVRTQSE

T5: K858 PDZ-GST fusion protein (Homo sapiens (Human), UniProt Q8WWI1 1038-1131)
T5 construct: Order of GST and PDZ part and limits not seen in the excerpts
T5 sequence: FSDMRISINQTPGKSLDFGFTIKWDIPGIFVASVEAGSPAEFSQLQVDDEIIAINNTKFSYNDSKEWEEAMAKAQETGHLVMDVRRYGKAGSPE

T6: GST-MPP1 PDZ domain fusion protein (Homo sapiens (Human), UniProt Q00013 67-152)
T6 construct: also called p55; 55 Kd erythrocyte membrane protein; not shown: glutathione S-transferase encoded by vector pGEX-3X (Pharmacia)
T6 sequence: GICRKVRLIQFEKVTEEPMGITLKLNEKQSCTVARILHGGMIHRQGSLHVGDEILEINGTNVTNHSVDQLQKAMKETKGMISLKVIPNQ

T7: GST-AF6 PDZ domain fusion protein (Homo sapiens (Human), UniProt P55196 1001-1093)
T7 construct: also called af-6 protein; not shown: glutathione S-transferase encoded by vector pGEX-3X (Pharmacia)
T7 sequence: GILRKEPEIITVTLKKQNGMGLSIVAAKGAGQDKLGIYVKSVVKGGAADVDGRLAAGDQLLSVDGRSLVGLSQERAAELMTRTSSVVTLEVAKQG

T8: GST-prIL16 fusion protein (PDZ domains 1-2) (Homo sapiens (Human), UniProt Q14005 1111-1324)
T8 construct: also called putative interleukin 16 precursor; not shown: glutathione S-transferase encoded by vector pGEX-3X (Pharmacia)
T8 sequence: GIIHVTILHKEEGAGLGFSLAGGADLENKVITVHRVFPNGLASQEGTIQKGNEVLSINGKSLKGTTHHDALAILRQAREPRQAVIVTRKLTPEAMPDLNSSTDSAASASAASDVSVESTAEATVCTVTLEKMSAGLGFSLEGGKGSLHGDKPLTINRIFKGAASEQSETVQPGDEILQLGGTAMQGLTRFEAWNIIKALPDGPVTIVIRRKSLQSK

T9: GST-RGS12 PDZ domain fusion protein (human, UniProt O14924 17-85)
T9 construct: also called human regulator of G-protein signalling 12; not shown: glutathione S-transferase encoded by vector pGEX-3X (Pharmacia)
T9 sequence: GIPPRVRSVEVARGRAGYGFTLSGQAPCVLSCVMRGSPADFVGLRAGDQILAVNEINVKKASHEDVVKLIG

T10: GST-TAX-IP40 PDZ domain fusion protein (human, UniProt Q6B4M5 150-252 (rat entry))
T10 construct: also called TAX40; not shown: glutathione S-transferase encoded by vector pGEX-3X (Pharmacia)
T10 sequence: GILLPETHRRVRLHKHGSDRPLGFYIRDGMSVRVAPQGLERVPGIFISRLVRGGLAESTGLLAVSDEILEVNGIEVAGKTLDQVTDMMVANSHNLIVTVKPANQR

T11: GST-KIAA0303 PDZ domain fusion protein (Homo sapiens (Human), UniProt O15021 1138-1228)
T11 construct: also called K303; not shown: glutathione S-transferase encoded by vector pGEX-3X (Pharmacia)
T11 sequence: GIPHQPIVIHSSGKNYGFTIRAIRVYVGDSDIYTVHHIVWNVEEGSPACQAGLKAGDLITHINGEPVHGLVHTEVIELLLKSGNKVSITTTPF

T12: ConEn PDZ-GST fusion protein (Homo sapiens (Human), UniProt Q969H4 193-287)
T12 construct: The label ConEn is not explained in the excerpts
T12 sequence: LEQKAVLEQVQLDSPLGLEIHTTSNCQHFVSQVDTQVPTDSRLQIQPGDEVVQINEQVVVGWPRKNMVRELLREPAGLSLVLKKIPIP

B1: CD138 C-terminal peptide AA18L, biotinylated (peptide)
peptide: Biotin-PKQANGGAYQKPTKQEEFYA
notes: also called CD138 (syndecan-1); CD138 (syndecan)
B2: CD95 (Fas) C-terminal peptide AA13L, biotinylated (peptide)
peptide: Biotin-KDITSDSENSNFRNEIQSLV
notes: also called CD95 (Apo-1/Fas); AAI3L

Target: T13, PICK1 PDZ-GST fusion protein (Bos taurus (Bovine), UniProt Q2T9M1 17-105)
T13 construct: Order of GST and PDZ part and limits not seen in the excerpts
Experiment: A/G assays

T13 sequence (Q2T9M1 other isoform, or with tags, fused parts or gaps limits assumed): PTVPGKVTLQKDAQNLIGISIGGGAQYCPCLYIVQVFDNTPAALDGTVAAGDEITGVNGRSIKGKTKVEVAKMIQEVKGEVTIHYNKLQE

Row | Binder | binding result
1 | B1 | no binding
2 | B2 | no binding

Target: T1, GST-cytohesin binding protein PDZ …
Experiment: A/G assays

Row | Binder | binding result
3 | B1 | no binding
4 | B2 | no binding

Target: T2, GST-TAX-IP2 PDZ domain fusion protein
Experiment: A/G assays

Row | Binder | binding result
5 | B1 | no binding
6 | B2 | no binding

Target: T3, GST-PTN-4 PDZ domain fusion protein
Experiment: A/G assays

Row | Binder | binding result
7 | B1 | no binding
8 | B2 | no binding

Target: T14, NSP PDZ-GST fusion protein (Homo sapiens (Human), UniProt Q92743 370-466)
T14 construct: The label NSP is not explained in the excerpts
Experiment: A/G assays

T14 sequence (Q92743 other isoform, or with tags, fused parts or gaps limits assumed): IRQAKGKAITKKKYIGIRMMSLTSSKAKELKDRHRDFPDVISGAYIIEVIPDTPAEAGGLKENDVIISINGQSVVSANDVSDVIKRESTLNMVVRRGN

Row | Binder | binding result
9 | B1 | no binding
10 | B2 | no binding

Target: T4, SP short PDZ-GST fusion protein
Experiment: A/G assays

Row | Binder | binding result
11 | B1 | no binding
12 | B2 | no binding

Target: T15, NOS1 PDZ-GST fusion protein (Homo sapiens (Human), UniProt P29475 11-100)
T15 construct: Order of GST and PDZ part and limits not seen in the excerpts
Experiment: A/G assays

T15 sequence (P29475 11-100 limits assumed): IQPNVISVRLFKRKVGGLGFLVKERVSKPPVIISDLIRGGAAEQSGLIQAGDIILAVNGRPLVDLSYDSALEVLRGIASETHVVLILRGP

Row | Binder | binding result
13 | B1 | no binding
14 | B2 | no binding

Target: T5, K858 PDZ-GST fusion protein
Experiment: A/G assays

Row | Binder | binding result
15 | B1 | no binding
16 | B2 | no binding

Target: T6, GST-MPP1 PDZ domain fusion protein
Experiment: A/G assays

Row | Binder | binding result
17 | B1 | no binding
18 | B2 | no binding

Target: T7, GST-AF6 PDZ domain fusion protein
Experiment: A/G assays

Row | Binder | binding result
19 | B1 | no binding
20 | B2 | no binding

Target: T8, GST-prIL16 fusion protein (PDZ domains …)
Experiment: A/G assays

Row | Binder | binding result
21 | B1 | no binding
22 | B2 | no binding

Target: T9, GST-RGS12 PDZ domain fusion protein
Experiment: A/G assays

Row | Binder | binding result
23 | B1 | no binding
24 | B2 | no binding

Target: T10, GST-TAX-IP40 PDZ domain fusion protein
Experiment: A/G assays

Row | Binder | binding result
25 | B1 | no binding
26 | B2 | no binding

Target: T11, GST-KIAA0303 PDZ domain fusion protein
Experiment: A/G assays

Row | Binder | binding result
27 | B1 | no binding
28 | B2 | no binding

Target: T16, GST-TIAM1 PDZ domain fusion protein (Homo sapiens (Human), UniProt Q13009 845-931)
T16 construct: also called TLAM1; T-lymphoma invasion and metastasis inducing protein 1; not shown: glutathione S-transferase encoded by vector pGEX-3X (Pharmacia)
Experiment: A/G assays

T16 sequence (Q13009 other isoform, or with tags, fused parts or gaps): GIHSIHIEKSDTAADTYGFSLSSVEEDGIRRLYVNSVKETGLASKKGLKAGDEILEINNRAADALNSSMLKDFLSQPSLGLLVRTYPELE

Row | Binder | binding result
29 | B2 | no binding

Target: T12, ConEn PDZ-GST fusion protein
Experiment: A/G assays

Row | Binder | binding result
30 | B1 | no binding
31 | B2 | no binding
